Tested on: T1, MTA1c (MTA1/MTA9/p1/p2 complex) (Tetrahymena thermophila)
T1 sequence 1: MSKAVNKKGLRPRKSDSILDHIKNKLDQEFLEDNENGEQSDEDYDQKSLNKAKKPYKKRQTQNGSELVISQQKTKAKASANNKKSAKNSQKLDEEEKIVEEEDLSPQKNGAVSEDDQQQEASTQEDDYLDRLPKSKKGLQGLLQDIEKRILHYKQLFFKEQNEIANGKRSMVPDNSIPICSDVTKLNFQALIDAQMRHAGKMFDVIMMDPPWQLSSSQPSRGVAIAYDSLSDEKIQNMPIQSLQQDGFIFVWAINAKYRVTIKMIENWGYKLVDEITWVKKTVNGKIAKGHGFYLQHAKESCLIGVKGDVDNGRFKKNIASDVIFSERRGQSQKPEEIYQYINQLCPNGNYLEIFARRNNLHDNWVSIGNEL
T1 sequence 2: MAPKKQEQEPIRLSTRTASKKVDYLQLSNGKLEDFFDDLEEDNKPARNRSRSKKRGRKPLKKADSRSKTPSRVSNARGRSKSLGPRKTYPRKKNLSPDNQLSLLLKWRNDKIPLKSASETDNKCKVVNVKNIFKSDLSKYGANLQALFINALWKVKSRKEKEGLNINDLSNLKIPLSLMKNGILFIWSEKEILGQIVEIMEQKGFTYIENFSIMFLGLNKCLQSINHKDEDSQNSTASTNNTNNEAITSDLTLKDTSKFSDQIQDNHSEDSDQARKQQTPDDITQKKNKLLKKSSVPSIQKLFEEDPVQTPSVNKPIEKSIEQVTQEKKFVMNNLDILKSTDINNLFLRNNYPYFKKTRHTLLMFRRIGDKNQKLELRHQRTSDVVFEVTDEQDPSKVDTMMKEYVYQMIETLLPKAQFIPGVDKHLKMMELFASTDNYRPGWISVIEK
T1 sequence 3: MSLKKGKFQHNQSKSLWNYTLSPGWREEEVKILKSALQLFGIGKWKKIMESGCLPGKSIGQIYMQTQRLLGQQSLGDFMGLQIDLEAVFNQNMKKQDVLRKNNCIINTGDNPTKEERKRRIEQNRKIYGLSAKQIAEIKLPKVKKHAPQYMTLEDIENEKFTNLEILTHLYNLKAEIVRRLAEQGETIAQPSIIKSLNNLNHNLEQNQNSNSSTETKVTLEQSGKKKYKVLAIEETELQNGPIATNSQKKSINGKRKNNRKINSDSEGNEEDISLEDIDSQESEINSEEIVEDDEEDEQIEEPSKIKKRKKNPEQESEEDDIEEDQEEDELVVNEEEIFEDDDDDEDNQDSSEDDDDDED
T1 sequence 4: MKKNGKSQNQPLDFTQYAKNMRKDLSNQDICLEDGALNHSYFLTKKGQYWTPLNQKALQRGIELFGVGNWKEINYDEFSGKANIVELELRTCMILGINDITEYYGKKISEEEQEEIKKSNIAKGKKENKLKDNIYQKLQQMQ
Conditions: [3H]SAM assay, reference substrate

Substance: 27 bp dsDNA with two ApT motifs
- activity (relative activity): 1
